# Experimental data as given in US6013499, “Rho target protein kinase p160” (Kirin Beer Kabushiki Kaisha, dated 2000).
# Biological target: RhoA fused to LexA DNA-binding domain (yeast two hybrid) (human)
# Assay: yeast two hybrid, β-galactosidase activity
row,Binder,binding result
1,M2-6 (974-1024) fused to the VP16-activation domain (yeast two hybrid) (other) KLEKEEEISNLKAAFEKNINTERTLKTQAVNKLAEIMNRKDFKIDRKKANT,no binding
2,M2-9 (906-1004) fused to the VP16-activation domain (yeast two hybrid) (other) RGLLEEQYFELTQESKKAASRNRQEITDKDHTVSRLEEANSMLTKDIEILRRENEELTEKMKKAEEEYKLEKEEEISNLKAAFEKNINTERTLKTQAVN,no binding
